{
  "source": "patent US12533321B2",
  "about": "“Polypeptide formulations for oral delivery” (Bhami's Research Laboratory, Pvt. Ltd., priority 2022, dated 2026)",
  "key": {"[1]": {"conditions": "minipig, in vivo, iv", "protocol": "Pharmacokinetic analysis was conducted in Female Minipigs weighing 12±1 kg for 2 days. Pigs in the treatment group was fasted overnight prior to the test sample administration. All the test animals in the treatment groups were administered with respective test formulation to the pre-designated animals. The time of dosage of each animal was noted. Blood samples were collected at aforementioned time points 0 min, 5 min, 30 min 1 hr, 4 hrs, 12 hrs, 24 hrs, and 48 hrs into an EDTA-blood collection tubes for the separation of plasma to determine insulin levels by ELISA. Plasma samples collected at different time points were analyzed by ELISA kit according to ABBEXA protocol. This kit is based on sandwich enzyme-linked immuno-sorbent assay technology. An antibody, anti-insulin was pre-coated onto a 96-well plate. Standards, test samples, and biotin-conjugated reagent were added to the wells and incubated. The HRP-conjugated reagent was then added, and the whole plate was incubated. Unbound conjugates were removed using wash buffer at each stage. TMB substrate was used to quantify the HRP enzymatic reaction. After TMB substrate was added, only wells that contain sufficient INS will produce a blue colored product, which then changes to yellow after adding the acidic stop solution. The intensity of the yellow colour is proportional to the INS amount bound on the plate. The Optical Density (OD) was measured spectrophotometrically at 450 nm in a microplate reader, from which the concentration of INS can be calculated.\n(§1) Insulin was analyzed in plasma using a specific enzyme linked immunosorbent assay (ELISA). Pharmacokinetic endpoints were determined using noncompartmental methods using PK Solutions software. AUC was approximated using the trapezoidal rule on the observed concentrations. C max for each Insulin dose was derived as the maximum of all valid concentrations, and t max was then determined as the corresponding time point to C max. The terminal elimination rate constant (λ z) was estimated by log-linear regression on the terminal part of the concentration-time curve, and t ½ was then calculated as t ½=ln 2/λz."}, "[2]": {"conditions": "minipig, in vivo, iv", "remark": "listed apart in the source", "protocol": "Pharmacokinetic analysis was conducted in Female Minipigs weighing 12±1 kg for 2 days. Pigs in the treatment group was fasted overnight prior to the test sample administration. All the test animals in the treatment groups were administered with respective test formulation to the pre-designated animals. The time of dosage of each animal was noted. Blood samples were collected at aforementioned time points 0 min, 5 min, 30 min, 1 hr, 4 hrs, 12 hrs, 24 hrs, and 48 hrs into an EDTA-blood collection tubes for the separation of plasma to determine insulin levels by ELISA. Plasma samples collected at different time points were analyzed by ELISA kit according to ABBEXA protocol. This kit is based on sandwich enzyme-linked immuno-sorbent assay technology. An antibody, anti-insulin was pre-coated onto a 96-well plate. Standards, test samples, and biotin-conjugated reagent were added to the wells and incubated. The HRP-conjugated reagent was then added, and the whole plate was incubated. Unbound conjugates were removed using wash buffer at each stage. TMB substrate was used to quantify the HRP enzymatic reaction. After TMB substrate was added, only wells that contain sufficient INS will produce a blue colored product, which then changes to yellow after adding the acidic stop solution. The intensity of the yellow colour is proportional to the INS amount bound on the plate. The Optical Density (OD) was measured spectrophotometrically at 450 nm in a microplate reader, from which the concentration of INS can be calculated.\nas §1"}, "[3]": {"test": "Pharmacokinetics of Semaglutide in albumin crystal sugar truffle shell vs SC, plasma Semaglutide by ELISA", "assay_type": "in vivo, Wistar Rats", "conditions": "0.1 mg", "procedure": "The semaglutide was processed to prepare albumin microparticles containing semaglutide according to the procedure mentioned under Example 5. The microparticle of albumin crystals containing semaglutide was then lyophilized after washing with cold isopropanol.\nPharmacokinetic analysis was conducted in male Wistar Rats weighing 150 to 250 grams for 1 day. Rats in the oral treatment group was fasted overnight. […] The time of dosage of each animal was noted. […] An antibody, anti-Semaglutide was pre-coated onto a 96-well plate. […] The intensity of the yellow color is proportional to the Semaglutide amount bound on the plate."}},
  "note": "Where two headings read alike, the source gives them in different places.",
  "data": [
    {"molecule": "Human Insulin R: Humulin R (insulin human recombinant) U-100, marketed liquid formulation, given IV", "values": [
      {"measurement": "Cl_obs", "setting": "[1]", "result": "0.000 (mg)/(mU/L)/h"},
      {"measurement": "Cl_pred", "setting": "[1]", "result": "0.000 (mg)/(mU/L)/h"},
      {"measurement": "AUC 0-inf_obs", "setting": "[1]; 0.347 mg", "result": 803.478, "unit": "mU/L * h"},
      {"measurement": "AUC 0-inf_pred", "setting": "[1]; 0.347 mg", "result": 800.145, "unit": "mU/L * h"},
      {"measurement": "AUC t-inf_obs", "setting": "[1]; 0.347 mg", "result": 20.830, "unit": "mU/L * h"},
      {"measurement": "AUC t-inf_pred", "setting": "[1]; 0.347 mg", "result": 17.497, "unit": "mU/L * h"},
      {"measurement": "AUC(0-t)", "setting": "[1]; 0.347 mg", "result": 782.648, "unit": "mU/L * h"},
      {"measurement": "C0", "setting": "[1]; 0.347 mg", "result": 105.903, "unit": "mU/L"},
      {"measurement": "Cmax", "setting": "[1]; 0.347 mg", "result": 998.596, "unit": "mU/L"},
      {"measurement": "MRT 0-inf_obs", "setting": "[1]; 0.347 mg", "result": 1.532, "unit": "h"},
      {"measurement": "MRT 0-inf_pred", "setting": "[1]; 0.347 mg", "result": 1.471, "unit": "h"},
      {"measurement": "MRT 0-t", "setting": "[1]; 0.347 mg", "result": 1.143, "unit": "h"},
      {"measurement": "Tmax", "setting": "[1]; 0.347 mg", "result": 4.8, "unit": "min"},
      {"measurement": "Vss_obs", "setting": "[1]; 0.347 mg", "result": "0.001 (mg)/(mU/L)"},
      {"measurement": "Vss_pred", "setting": "[1]; 0.347 mg", "result": "0.001 (mg)/(mU/L)"},
      {"measurement": "Vz_obs", "setting": "[1]; 0.347 mg", "result": "0.002 (mg)/(mU/L)"},
      {"measurement": "Vz_pred", "setting": "[1]; 0.347 mg", "result": "0.002 (mg)/(mU/L)"},
      {"measurement": "t½", "setting": "[1]; 0.347 mg", "result": 2.873, "unit": "h"},
      {"measurement": "Cl_obs", "setting": "[2]", "result": "0.000 (mg)/(mU/L)/h"},
      {"measurement": "Cl_pred", "setting": "[2]", "result": "0.000 (mg)/(mU/L)/h"},
      {"measurement": "AUC 0-inf_obs", "setting": "[2]; 0.347 mg", "result": 803.478, "unit": "mU/L * h"},
      {"measurement": "AUC 0-inf_pred", "setting": "[2]; 0.347 mg", "result": 800.145, "unit": "mU/L * h"},
      {"measurement": "AUC t-inf_obs", "setting": "[2]; 0.347 mg", "result": 20.830, "unit": "mU/L * h"},
      {"measurement": "AUC t-inf_pred", "setting": "[2]; 0.347 mg", "result": 17.497, "unit": "mU/L * h"},
      {"measurement": "AUC(0-t)", "setting": "[2]; 0.347 mg", "result": 782.648, "unit": "mU/L * h"},
      {"measurement": "C0", "setting": "[2]; 0.347 mg", "result": 105.903, "unit": "mU/L"},
      {"measurement": "Cmax", "setting": "[2]; 0.347 mg", "result": 998.596, "unit": "mU/L"},
      {"measurement": "MRT 0-inf_obs", "setting": "[2]; 0.347 mg", "result": 1.532, "unit": "h"},
      {"measurement": "MRT 0-inf_pred", "setting": "[2]; 0.347 mg", "result": 1.471, "unit": "h"},
      {"measurement": "MRT 0-t", "setting": "[2]; 0.347 mg", "result": 1.143, "unit": "h"},
      {"measurement": "Tmax", "setting": "[2]; 0.347 mg", "result": 4.8, "unit": "min"},
      {"measurement": "Vss_obs", "setting": "[2]; 0.347 mg", "result": "0.001 (mg)/(mU/L)"},
      {"measurement": "Vss_pred", "setting": "[2]; 0.347 mg", "result": "0.001 (mg)/(mU/L)"},
      {"measurement": "Vz_obs", "setting": "[2]; 0.347 mg", "result": "0.002 (mg)/(mU/L)"},
      {"measurement": "Vz_pred", "setting": "[2]; 0.347 mg", "result": "0.002 (mg)/(mU/L)"},
      {"measurement": "t½", "setting": "[2]; 0.347 mg", "result": 2.873, "unit": "h"}
    ]},
    {"molecule": "CC[C@H](C)[C@H](NC(=O)[C@H](Cc1ccccc1)NC(=O)[C@H](CCC(=O)O)NC(=O)[C@H](CCCCNC(=O)COCCOCCNC(=O)COCCOCCNC(=O)CC[C@H](NC(=O)CCCCCCCCCCCCCCCCC(=O)O)C(=O)O)NC(=O)[C@H](C)NC(=O)[C@H](C)NC(=O)[C@H](CCC(N)=O)NC(=O)CNC(=O)[C@H](CCC(=O)O)NC(=O)[C@H](CC(C)C)NC(=O)[C@H](Cc1ccc(O)cc1)NC(=O)[C@H](CO)NC(=O)[C@H](CO)NC(=O)[C@@H](NC(=O)[C@H](CC(=O)O)NC(=O)[C@H](CO)NC(=O)[C@@H](NC(=O)[C@H](Cc1ccccc1)NC(=O)[C@@H](NC(=O)CNC(=O)[C@H](CCC(=O)O)NC(=O)C(C)(C)NC(=O)[C@@H](N)Cc1cnc[nH]1)[C@@H](C)O)[C@@H](C)O)C(C)C)C(=O)N[C@@H](C)C(=O)N[C@@H](Cc1c[nH]c2ccccc12)C(=O)N[C@@H](CC(C)C)C(=O)N[C@H](C(=O)N[C@@H](CCCNC(=N)N)C(=O)NCC(=O)N[C@@H](CCCNC(=N)N)C(=O)NCC(=O)O)C(C)C", "note": "[Semaglutide]", "values": [
      {"measurement": "Mean Semaglutide levels", "setting": "[3]; 0 h, SC", "result": "0.00 ± 0.00", "unit": "ng/mL"},
      {"measurement": "AUMC 0-inf_obs", "setting": "[3]; SC", "result": 29775275.74, "unit": "ng/ml * h^2"},
      {"measurement": "AUMC 0-inf_pred", "setting": "[3]; SC", "result": 29434343.61, "unit": "ng/ml * h^2"},
      {"measurement": "AUMC 0-t", "setting": "[3]; SC", "result": 2165980.669, "unit": "ng/ml * h^2"},
      {"measurement": "AUMC 0-t/0-inf_obs", "setting": "[3]; SC", "result": 0.07274},
      {"measurement": "AUMC 0-t/0-inf_pred", "setting": "[3]; SC", "result": 0.07359},
      {"measurement": "AUMC t-inf_obs", "setting": "[3]; SC", "result": 27609295.07, "unit": "ng/ml * h^2"},
      {"measurement": "AUMC t-inf_pred", "setting": "[3]; SC", "result": 27268362.94, "unit": "ng/ml * h^2"},
      {"measurement": "Clast_obs", "setting": "[3]; SC", "result": 6808.65, "unit": "ng/mL"},
      {"measurement": "Clast_pred", "setting": "[3]; SC", "result": 6725, "unit": "ng/mL"},
      {"measurement": "Lambda_z", "setting": "[3]; SC", "result": 0.01894, "unit": "h⁻¹"},
      {"measurement": "Tlag", "setting": "[3]; SC", "result": 0, "unit": "h"},
      {"measurement": "Tlast", "setting": "[3]; SC", "result": 24, "unit": "h"},
      {"measurement": "level at 0.25 h", "setting": "[3]; male, Wistar, rat, plasma, 0.25 h, SC, read-out: Mean Semaglutide levels", "result": "11900 ± 2420", "unit": "ng/mL"},
      {"measurement": "level at 0.5 h", "setting": "[3]; male, Wistar, rat, plasma, 0.5 h, SC, read-out: Mean Semaglutide levels", "result": "11200 ± 1470", "unit": "ng/mL"},
      {"measurement": "level at 1 h", "setting": "[3]; male, Wistar, rat, plasma, 1 h, SC, read-out: Mean Semaglutide levels", "result": "13100 ± 1670", "unit": "ng/mL"},
      {"measurement": "level at 2 h", "setting": "[3]; male, Wistar, rat, plasma, 2 h, SC, read-out: Mean Semaglutide levels", "result": "12600 ± 2930", "unit": "ng/mL"},
      {"measurement": "level at 4 h", "setting": "[3]; male, Wistar, rat, plasma, 4 h, SC, read-out: Mean Semaglutide levels", "result": "10300 ± 2790", "unit": "ng/mL"},
      {"measurement": "level at 8 h", "setting": "[3]; male, Wistar, rat, plasma, 8 h, SC, read-out: Mean Semaglutide levels", "result": "8560 ± 1420", "unit": "ng/mL"},
      {"measurement": "level at 24 h", "setting": "[3]; male, Wistar, rat, plasma, 24 h, SC, read-out: Mean Semaglutide levels", "result": "6810 ± 1730", "unit": "ng/mL"},
      {"measurement": "MRT inf", "setting": "[3]; rat, in vivo, sc, SC, read-out: MRT 0-inf_obs", "result": 52.6, "unit": "h"},
      {"measurement": "MRT inf", "setting": "[3]; rat, in vivo, sc, SC, read-out: MRT 0-inf_pred", "result": 52.4, "unit": "h"},
      {"measurement": "MRT last", "setting": "[3]; rat, in vivo, sc, read-out: MRT 0-t", "result": 10.5, "unit": "h"}
    ]}
  ]
}
